# Data taken from paper PMC6864339.
# Where two headings read alike, the source gives them in different places.
# B1: Recombinant mouse secretagogin (SCGN) (natural protein)
# chain: MDNARRKTPARLDAACFWQIWQRFDKEEKGYIRETELDAFFDHLLAKSGTEDTLMEENVQKVKEQLMTSHNVSKEGRILMKELASMFLSEDENFLLFFRLETPLDNSVEFMQIWRKYDADSSGFISAAELCNFLRDLFLHHKKNISEAELEEYTSTMMKIFDKNKDGRLDLNDLARILALQENFLLQFKMDASSTEERKRDFEKIFAHYDVSKTGALEGPEVDGFVKDMMELVQPSISGVDLDKFREILLRHCDVNKDGKIQKSELALCLGLKINP
# Tests used:
# [1] = biological target: Insulin; test: BLI
# [2] = biological target: Insulin; test: BLI; remark: listed apart in the source
binder,measurement,setting,value
B1,Kd,[1],1800 nM
same,koff,[1],0.001 s⁻¹
same,kon,[1],720 M⁻¹ s⁻¹
same,Kd,[2],1400 nM
same,koff,[2],0.0006 s⁻¹
